Data: the supplement of paper PMC10567573

B1: SLC19A2 (parent)
chain: FASLRPSEPFLTPYLLGPDKNLTE
B2: POMT2 (parent)
chain: LRGGGQVLLGWTLHYFPFFLMGRV

Variants of: B1
Test: protein stability index of a GFP-peptide fusion (GPS, HEK-293T) (PSI 1-6); higher = more stable
Settings: c terminus: a fixed tail appended
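Also: lentivirally expressed fusions sorted by FACS into six bins by GFP to DsRed ratio, PSI derived from sequencing read proportions per bin multiplied by bin number.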

Protein stability index, by site and new letter:
N21: F 1.67, W 2.31, A 1.51, E 2.02, D 1.84, R 1.95, C 1.33, H 1.29, Q 1.88, I 2.02, G 1.52, K 1.6, T 1.56
L4: T 2.23, P 2.98, W 3.5, I 2.44, D 2.76, M 1.48, N 1.74, R 2.24, K 1.48, F 1.93, Q 2.15
S3: A 1.59, G 1.65, F 1.93, H 1.87, P 2.43, M 1.74, C 1.23, Q 2.61, K 2.78
K20: R 1.94, N 2.13, S 2.29, C 1.18, A 2.14, L 2.1, V 1.84, H 1.97, G 2.04, P 1.92, F 1.62, M 1.98
P13: A 2.58, D 2.28, H 1.76, Y 1.58, K 2.56, T 1.66, W 1.88, Q 1.94, R 1.68
T12: F 1.74, P 1.89, A 1.79, R 1.74, N 2.05, I 2, M 1.93, S 1.93, D 1.97, V 1.28, Y 2.24, H 1.72
Y14: N 3.22, R 2.87, M 2.6, D 2.49, A 2.42, V 2.22, G 2.18, K 2.42, L 2.06, F 2.38, C 2.27, Q 2.69, W 1.46
R5: T 1.98, W 2.43, H 2.17, Q 2.34, G 1.57, C 1.99, M 1.94, Y 2.39, E 2.58, S 2.07, V 2.6
G17: E 1.86, L 2.22, V 1.89, W 2.1, K 2.23, I 4.07, C 1.05, M 1.7, Y 1.79, Q 2.23
F1: Y 1.5, A 4.25, H 3.58, L 2.93, V 3.4, S 4.12, W 2.77, R 3.75, P 3.64
L11: D 2.29, H 2.03, I 1.58, A 2.42, R 1.81, W 3.29, V 1.61, E 2.88, P 2.03
F10: H 2.61, T 2.15, I 2.23, K 2.72, R 2.94, N 3.22, C 2.11, E 2.66, Y 2.04, A 2.52
E24: Y 2.08, K 1.96, S 1.94, L 1.27, W 2.43, H 1.93, A 1.89, M 2.03, P 2.41, Q 2.06, R 2.39
P6: K 2.13, E 1.65, A 1.12, T 2.7, Q 2.16, G 1.71, F 1.58, L 1.8, H 1.54, D 2.17, C 1.99, R 2.12, M 1.36
P18: G 1.51, K 2.12, Q 2, L 1.8, W 1.76, F 1.54, A 1.65, D 2, H 2.53
A2: H 1.63, F 2.19, R 3.08, L 2.04, T 1.97, V 2.5, M 2.36, N 3.64, C 1.51, D 3.64, K 2.84, I 1.66, S 3.02, E 3.63
L16: M 1.79, Y 1.3, E 2.21, K 2.27, I 1.51, F 2.04, P 1.79, G 2.85, W 2.14, C 2.07, Q 1.8, A 2.31, H 2.86
E8: Q 1.69, F 1.78, V 2.14, L 1.26, D 1.63, H 1.66, M 1.88, R 1.59, I 2.19, W 2.48, N 2.3, P 2.12, Y 1.72, K 2.1
D19: Q 1.57, W 3.08, H 1.57, S 2.5, Y 2.89, C 1.44, A 1.56, F 1.87, N 1.46, M 2.1, T 1.9, K 1.58
S7: E 1.82, D 1.92, V 2.27, G 2.07, P 1.87, M 1.24, R 1.71, C 2.28
P9: C 2.26, K 1.78, Q 1.98, A 2.27, T 2.48, W 2.12, S 1.61, V 2.9, H 1.67, D 2.85
L22: K 2.34, R 1.92, G 2.04, I 1.86, Q 1.99, F 1.62, V 1.52, T 2.25, E 2.03, Y 1.84, C 1.96, S 2.1
T23: N 1.84, Q 3.16, R 1.42, H 2.8, L 1.64, A 2.24, E 2.02, C 2.12, K 2.09, V 1.29
L15: N 2.3, P 1.97, Y 1.78, S 1.79, T 2.19, D 2.43, V 1.86, W 1.44, K 1.84, A 1.91, C 2.23, G 1.77, M 2.23, I 1.99

Variants of: B2
Test: as above
Settings: c terminus: a fixed tail appended

Protein stability index of substitutions, site by site:
F19: W 3.22, G 4.57, N 2.04, Q 4.97, S 3.98, A 2.89, Y 2.17
V24: C 1.83, R 3.15, Y 3.27, I 2.03, H 3.69, Q 2.04, A 1.72
F18: W 1.2, T 1.98, V 3.11, Y 1.42, E 4.02, N 2.04
M21: A 3.45, K 2.16, W 4.41, N 1.43, S 2.79
F16: Q 2.26, E 3.44, T 3.4, H 3.2, G 3.06
P17: R 3.18, M 4.38, V 2.54, W 3.06, E 1.35, F 2.59, Q 4.16, I 2.09, D 4.4, K 2.55, C 2.18, N 2.79
L20: F 4.18, S 1.7, N 3.25, P 5.95, W 2.38
Y15: R 2.02, T 1.39, I 4.09, W 2.28, K 2.92
G22: L 3.83, D 3.12, Q 1.28, A 3.58, C 1.58, P 2.64
R23: I 4.29, C 2.79, Y 1.9, D 1.88, S 2.85, E 3.15, T 3.19, W 3.02
